# According to the supplement of paper PMC9112550, “Optimization of the antimicrobial peptide Bac7 by deep mutational scanning” (BMC Biology, 2022):
# Test system: Escherichia coli TOP10
# Assay: shrunken log2 fold change of peptide-encoding DNA abundance (4.5 h post-induction vs induction); higher = less antimicrobial activity (less host growth inhibition)
# Details: time post-induction: 4.5 h; library: site-saturation at positions 5, 18, 19, 20
# 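Also: peptides expressed intracellularly from a pBAD plasmid library in pooled LB shake-flask culture, induced with 0.3% L-arabinose, DNA abundance read by NGS, three biological replicates, DESeq2 with apeglm shrinkage.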
row,Sequence,shrunken log2 fold change
1,RRIRERPPRLPRPRPRPMVEPRP,-0.0932
2,RRIRSRPPRLPRPRPRPHINPRP,-0.607
3,RRIRWRPPRLPRPRPRPVGLPRP,0.568
4,RRIRNRPPRLPRPRPRPQLGPRP,-0.124
5,RRIRNRPPRLPRPRPRPMRDPRP,-0.00169
6,RRIRARPPRLPRPRPRPQKVPRP,0.0196
7,RRIRPRPPRLPRPRPRPNQGPRP,-0.55
8,RRIRERPPRLPRPRPRPVFYPRP,-0.437
9,RRIRYRPPRLPRPRPRPEKCPRP,-0.26
10,RRIRNRPPRLPRPRPRPVSAPRP,0.219
11,RRIRFRPPRLPRPRPRPYMEPRP,-0.0116
12,RRIRGRPPRLPRPRPRPKGVPRP,0.123
13,RRIRQRPPRLPRPRPRPLFTPRP,-0.426
14,RRIRTRPPRLPRPRPRPRHVPRP,0.0629
15,RRIRRRPPRLPRPRPRPRVLPRP,0.349
16,RRIRSRPPRLPRPRPRPQPNPRP,-0.00561
17,RRIRFRPPRLPRPRPRPCTGPRP,0.0368
18,RRIRRRPPRLPRPRPRPPHPPRP,0.886
19,RRIRQRPPRLPRPRPRPFETPRP,-0.232
20,RRIRPRPPRLPRPRPRPLTMPRP,-0.186
21,RRIRWRPPRLPRPRPRPETDPRP,0.773
22,RRIRCRPPRLPRPRPRPTPKPRP,0.877
23,RRIRFRPPRLPRPRPRPGVTPRP,0.0815
24,RRIRFRPPRLPRPRPRPGRCPRP,0.259
25,RRIRERPPRLPRPRPRPALLPRP,-0.23

row,Sequence,shrunken log2 fold change
1,RRIRERPPRLPRPRPRPGQNPRP,-0.0659
2,RRIRGRPPRLPRPRPRPGWNPRP,0.486
3,RRIRCRPPRLPRPRPRPQEYPRP,-0.399
4,RRIRSRPPRLPRPRPRPTRDPRP,0.701
5,RRIRIRPPRLPRPRPRPLKRPRP,-0.0843
6,RRIRKRPPRLPRPRPRPCWVPRP,0.259
7,RRIRVRPPRLPRPRPRPCMKPRP,-0.104
8,RRIRRRPPRLPRPRPRPWCAPRP,0.419
9,RRIRMRPPRLPRPRPRPPWKPRP,0.567
10,RRIRGRPPRLPRPRPRPYFAPRP,0.357
11,RRIRTRPPRLPRPRPRPCAQPRP,-0.05
12,RRIRLRPPRLPRPRPRPKEKPRP,-0.0145
13,RRIRHRPPRLPRPRPRPFRMPRP,-0.625
14,RRIRRRPPRLPRPRPRPFVIPRP,-0.0863
15,RRIRDRPPRLPRPRPRPVQAPRP,0.0233
16,RRIRFRPPRLPRPRPRPGDVPRP,-0.014
17,RRIRIRPPRLPRPRPRPPQRPRP,0.27
18,RRIRPRPPRLPRPRPRPFNHPRP,-0.304
19,RRIRKRPPRLPRPRPRPTKKPRP,0.0465
20,RRIRGRPPRLPRPRPRPKHMPRP,0.0797
21,RRIRYRPPRLPRPRPRPTVMPRP,-0.176
22,RRIRVRPPRLPRPRPRPFVEPRP,-0.361
23,RRIRYRPPRLPRPRPRPKMSPRP,-0.562
24,RRIRQRPPRLPRPRPRPKSCPRP,0.000945
25,RRIRRRPPRLPRPRPRPVARPRP,0.896

row,Sequence,shrunken log2 fold change
1,RRIRNRPPRLPRPRPRPASFPRP,-0.00784
2,RRIRPRPPRLPRPRPRPQIWPRP,0.0101
3,RRIRERPPRLPRPRPRPPLNPRP,-0.192
4,RRIRERPPRLPRPRPRPWVRPRP,-0.122
5,RRIRHRPPRLPRPRPRPGACPRP,0.203
6,RRIRGRPPRLPRPRPRPAYQPRP,0.254
7,RRIRQRPPRLPRPRPRPQSYPRP,0.015
8,RRIRGRPPRLPRPRPRPWFQPRP,0.0619
9,RRIRTRPPRLPRPRPRPSIKPRP,-0.556
10,RRIRHRPPRLPRPRPRPIDFPRP,0.0271
11,RRIRNRPPRLPRPRPRPAVQPRP,0.109
12,RRIRFRPPRLPRPRPRPLSCPRP,-0.73
13,RRIRKRPPRLPRPRPRPHCCPRP,-0.0219
14,RRIRLRPPRLPRPRPRPVAKPRP,0.123
15,RRIRTRPPRLPRPRPRPQKGPRP,-0.00821
16,RRIRQRPPRLPRPRPRPAHVPRP,-0.139
17,RRIRGRPPRLPRPRPRPKCIPRP,0.0819
18,RRIRARPPRLPRPRPRPWTTPRP,0.0452
19,RRIRGRPPRLPRPRPRPMNTPRP,0.632
20,RRIRCRPPRLPRPRPRPINDPRP,-0.505
21,RRIRMRPPRLPRPRPRPFRCPRP,-0.0869
22,RRIRFRPPRLPRPRPRPHVHPRP,-0.0448
23,RRIRLRPPRLPRPRPRPPHIPRP,0.0882
24,RRIRRRPPRLPRPRPRPFLWPRP,0.173
25,RRIRVRPPRLPRPRPRPYDYPRP,-0.00141

row,Sequence,shrunken log2 fold change
1,RRIRLRPPRLPRPRPRPFRKPRP,0.0823
2,RRIRMRPPRLPRPRPRPIEAPRP,0.111
3,RRIRRRPPRLPRPRPRPVGFPRP,0.362
4,RRIRYRPPRLPRPRPRPFWTPRP,-0.111
5,RRIRRRPPRLPRPRPRPPEWPRP,0.539
6,RRIRNRPPRLPRPRPRPQCWPRP,0.057
7,RRIRLRPPRLPRPRPRPTIRPRP,-0.0201
8,RRIRGRPPRLPRPRPRPIQMPRP,-0.027
9,RRIRFRPPRLPRPRPRPFTFPRP,-0.41
10,RRIRLRPPRLPRPRPRPDFGPRP,0.153
11,RRIRQRPPRLPRPRPRPWPMPRP,-0.0342
12,RRIRFRPPRLPRPRPRPFFTPRP,-0.227
13,RRIRMRPPRLPRPRPRPKHNPRP,0.131
14,RRIRERPPRLPRPRPRPFETPRP,0.21
15,RRIRQRPPRLPRPRPRPNSHPRP,-0.191
16,RRIRGRPPRLPRPRPRPWNYPRP,-0.0902
17,RRIRPRPPRLPRPRPRPMICPRP,-0.172
18,RRIRDRPPRLPRPRPRPWMDPRP,-0.0272
19,RRIRCRPPRLPRPRPRPWKYPRP,-0.0802
20,RRIRARPPRLPRPRPRPRYKPRP,0.0679
21,RRIRFRPPRLPRPRPRPIIWPRP,-0.273
22,RRIRVRPPRLPRPRPRPWCHPRP,-0.291
23,RRIRARPPRLPRPRPRPTVIPRP,0.0535
24,RRIRVRPPRLPRPRPRPMEFPRP,-0.03
25,RRIRWRPPRLPRPRPRPDFAPRP,0.49

row,Sequence,shrunken log2 fold change
1,RRIRERPPRLPRPRPRPKFSPRP,-0.0396
2,RRIRIRPPRLPRPRPRPNPCPRP,-0.159
3,RRIRVRPPRLPRPRPRPCTSPRP,-0.145
4,RRIRTRPPRLPRPRPRPACWPRP,0.281
5,RRIRCRPPRLPRPRPRPYRKPRP,-0.49
6,RRIRLRPPRLPRPRPRPINVPRP,-0.54
7,RRIRPRPPRLPRPRPRPMCNPRP,-0.075
8,RRIRQRPPRLPRPRPRPIDDPRP,-0.112
9,RRIRQRPPRLPRPRPRPEGLPRP,-0.0407
10,RRIRLRPPRLPRPRPRPYGGPRP,-0.0286
11,RRIRARPPRLPRPRPRPSEGPRP,-0.00533
12,RRIRHRPPRLPRPRPRPTVFPRP,-0.251
13,RRIRDRPPRLPRPRPRPCVEPRP,0.111
14,RRIRQRPPRLPRPRPRPSDTPRP,-0.0683
15,RRIRKRPPRLPRPRPRPQMMPRP,-0.0245
16,RRIRFRPPRLPRPRPRPLWIPRP,-0.624
17,RRIRGRPPRLPRPRPRPYETPRP,0.16
18,RRIRPRPPRLPRPRPRPCCTPRP,-0.12
19,RRIRWRPPRLPRPRPRPVAVPRP,0.465
20,RRIRARPPRLPRPRPRPYYMPRP,-0.687
21,RRIRERPPRLPRPRPRPENRPRP,-0.29
22,RRIRGRPPRLPRPRPRPFFSPRP,0.125
23,RRIRDRPPRLPRPRPRPDSDPRP,0.0999
24,RRIRLRPPRLPRPRPRPFRRPRP,-0.0943
25,RRIRFRPPRLPRPRPRPPTNPRP,0.236

row,Sequence,shrunken log2 fold change
1,RRIRARPPRLPRPRPRPNMWPRP,0.188
2,RRIRTRPPRLPRPRPRPNPGPRP,-0.0312
3,RRIRSRPPRLPRPRPRPCRDPRP,-0.0619
4,RRIRGRPPRLPRPRPRPKMVPRP,0.79
5,RRIRVRPPRLPRPRPRPDPSPRP,0.226
6,RRIRWRPPRLPRPRPRPMKVPRP,0.138
7,RRIRHRPPRLPRPRPRPWKSPRP,-0.0679
8,RRIRYRPPRLPRPRPRPRMAPRP,0.0395
9,RRIRGRPPRLPRPRPRPKPTPRP,0.527
10,RRIRARPPRLPRPRPRPMMHPRP,0.184
11,RRIRHRPPRLPRPRPRPFKCPRP,-0.0134
12,RRIRPRPPRLPRPRPRPVYFPRP,-0.671
13,RRIRWRPPRLPRPRPRPMHYPRP,-0.107
14,RRIRRRPPRLPRPRPRPLKPPRP,0.314
15,RRIRPRPPRLPRPRPRPHQRPRP,-0.232
16,RRIRVRPPRLPRPRPRPWLGPRP,-0.0696
17,RRIRTRPPRLPRPRPRPSNFPRP,-0.0603
18,RRIRQRPPRLPRPRPRPTAWPRP,0.591
19,RRIRMRPPRLPRPRPRPRTGPRP,0.561
20,RRIRCRPPRLPRPRPRPACHPRP,-0.315
21,RRIRVRPPRLPRPRPRPTKEPRP,-0.0294
22,RRIRQRPPRLPRPRPRPFDCPRP,-0.408
23,RRIRTRPPRLPRPRPRPCGSPRP,0.00855
24,RRIRTRPPRLPRPRPRPMGWPRP,0.293
25,RRIRIRPPRLPRPRPRPGSRPRP,-0.0379
